Patent US20150203575A1 (Genentech, published 2015)

What was measured:
Test in all cases: cDNA expression library screen with PILRα-AP supernatant on COS7 transfectants; positive clones further analysed by FACS
[1] = molecular target: T1, ETBR expressed on cells (human, UniProt P24530 27-442)
T1 construct: Clone of the Origene human cDNA library; also called Endothelin receptor type B
T1 sequence: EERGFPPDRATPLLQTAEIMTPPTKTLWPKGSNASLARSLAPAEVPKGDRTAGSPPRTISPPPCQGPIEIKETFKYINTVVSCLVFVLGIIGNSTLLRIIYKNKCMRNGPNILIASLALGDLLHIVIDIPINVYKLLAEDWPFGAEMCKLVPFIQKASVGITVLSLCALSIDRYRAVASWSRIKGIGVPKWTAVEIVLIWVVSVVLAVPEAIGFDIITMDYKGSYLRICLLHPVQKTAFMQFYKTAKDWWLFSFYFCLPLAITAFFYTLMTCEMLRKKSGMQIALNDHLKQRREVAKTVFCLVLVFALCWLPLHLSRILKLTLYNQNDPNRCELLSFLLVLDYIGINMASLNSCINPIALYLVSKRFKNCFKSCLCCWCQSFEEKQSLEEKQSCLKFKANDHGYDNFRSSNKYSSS
Protocol: (§1) COS7 cells were plated in a 24-well format and transfected with 10 ul of Origene library DNA (Origene, human DNA library containing 20 k genes) per well with Fugene 6 Reagent. Two days later, cells were incubated with human or mouse PILRα-Ap supernatants for 45 min at room temperature (RT). Then cells were fixed with 4% PFA for 15 min at RT. After removing fixation buffer, cells were blocked with 100 mM Glycine in HBS (20 mM Hepes, PH7.2, 150 mM NaCl) for 15 min at RT. Cells were then rinsed and incubated in HBS for 90 min at 65° C. HBS was removed and Western Blue Substrate (Promega) was added and color was developed for 30 min to 1 hr.

[2] = molecular target: T2, CLEC4G expressed on cells (human, UniProt Q6UXB4 1-293)
T2 construct: Clone of the Origene human cDNA library; also called C type lectin superfamily 4 member G
T2 sequence: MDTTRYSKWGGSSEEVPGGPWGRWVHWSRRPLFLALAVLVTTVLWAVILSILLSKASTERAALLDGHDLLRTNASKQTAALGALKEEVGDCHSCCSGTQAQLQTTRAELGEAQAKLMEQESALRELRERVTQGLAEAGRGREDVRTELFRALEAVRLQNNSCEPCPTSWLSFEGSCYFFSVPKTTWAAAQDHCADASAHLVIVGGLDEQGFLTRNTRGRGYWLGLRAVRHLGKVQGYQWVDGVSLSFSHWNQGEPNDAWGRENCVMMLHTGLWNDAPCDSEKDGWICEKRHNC
Protocol: as §1

[3] = molecular target: T3, APLP1 expressed on cells (human, UniProt P51693 39-650)
T3 construct: Clone of the Origene human cDNA library; also called Amyloid beta precursor like protein 1
T3 sequence: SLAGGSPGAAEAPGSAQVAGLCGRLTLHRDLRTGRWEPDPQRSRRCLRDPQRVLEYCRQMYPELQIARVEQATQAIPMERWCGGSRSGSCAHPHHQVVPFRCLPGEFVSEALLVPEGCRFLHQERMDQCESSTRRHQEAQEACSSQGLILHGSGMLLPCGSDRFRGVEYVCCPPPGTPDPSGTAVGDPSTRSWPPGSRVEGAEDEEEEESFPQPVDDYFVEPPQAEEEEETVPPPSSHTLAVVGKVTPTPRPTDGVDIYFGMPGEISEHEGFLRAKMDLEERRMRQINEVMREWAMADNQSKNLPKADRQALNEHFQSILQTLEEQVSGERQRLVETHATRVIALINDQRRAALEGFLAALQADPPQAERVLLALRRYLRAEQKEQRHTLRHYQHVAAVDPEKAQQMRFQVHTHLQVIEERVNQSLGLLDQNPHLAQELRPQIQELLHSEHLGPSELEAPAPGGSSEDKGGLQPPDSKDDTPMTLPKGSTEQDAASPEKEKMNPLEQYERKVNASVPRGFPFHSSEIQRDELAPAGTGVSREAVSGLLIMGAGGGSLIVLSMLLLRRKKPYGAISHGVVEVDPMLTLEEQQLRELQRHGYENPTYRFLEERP
Protocol: as §1

[4] = molecular target: T4, PTPRN expressed on cells (human, UniProt Q16849 35-979)
T4 construct: Clone of the Origene human cDNA library; also called Protein tyrosine phosphatase receptor-type N
T4 sequence: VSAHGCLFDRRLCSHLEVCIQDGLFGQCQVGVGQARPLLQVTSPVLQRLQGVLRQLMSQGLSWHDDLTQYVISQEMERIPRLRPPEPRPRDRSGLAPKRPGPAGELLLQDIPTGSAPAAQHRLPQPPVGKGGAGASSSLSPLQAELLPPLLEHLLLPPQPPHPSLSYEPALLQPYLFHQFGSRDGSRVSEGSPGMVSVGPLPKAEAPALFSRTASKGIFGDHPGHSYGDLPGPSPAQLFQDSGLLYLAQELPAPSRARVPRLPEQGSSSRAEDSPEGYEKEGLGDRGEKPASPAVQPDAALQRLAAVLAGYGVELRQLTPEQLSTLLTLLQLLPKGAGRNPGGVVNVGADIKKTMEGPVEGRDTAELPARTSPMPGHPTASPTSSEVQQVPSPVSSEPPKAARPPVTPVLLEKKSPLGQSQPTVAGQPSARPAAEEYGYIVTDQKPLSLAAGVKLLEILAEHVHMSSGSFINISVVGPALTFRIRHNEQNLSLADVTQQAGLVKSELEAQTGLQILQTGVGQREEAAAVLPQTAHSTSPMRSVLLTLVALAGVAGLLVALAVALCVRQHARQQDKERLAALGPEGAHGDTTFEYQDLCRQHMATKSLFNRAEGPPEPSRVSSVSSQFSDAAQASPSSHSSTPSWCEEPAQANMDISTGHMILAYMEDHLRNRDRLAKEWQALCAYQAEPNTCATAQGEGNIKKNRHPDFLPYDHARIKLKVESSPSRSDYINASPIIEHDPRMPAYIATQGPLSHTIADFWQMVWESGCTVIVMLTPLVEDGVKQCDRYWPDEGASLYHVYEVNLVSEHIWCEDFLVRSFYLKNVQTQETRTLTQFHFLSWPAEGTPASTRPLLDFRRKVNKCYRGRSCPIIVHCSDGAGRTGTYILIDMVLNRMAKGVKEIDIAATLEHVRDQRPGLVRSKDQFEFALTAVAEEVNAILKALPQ
Protocol: as §1

[5] = molecular target: T5, WDR31 expressed on cells (human, UniProt Q8NA23 1-367)
T5 construct: Clone of the Origene human cDNA library; also called WD repeat domain 31
Protocol: as §1

[6] = molecular target: T6, IL15-RA expressed on cells (human, UniProt Q13261 31-267)
T6 construct: Clone of the Origene human cDNA library; also called Interleukin 15 receptor alpha
T6 sequence (Q13261 31-267 limits assumed): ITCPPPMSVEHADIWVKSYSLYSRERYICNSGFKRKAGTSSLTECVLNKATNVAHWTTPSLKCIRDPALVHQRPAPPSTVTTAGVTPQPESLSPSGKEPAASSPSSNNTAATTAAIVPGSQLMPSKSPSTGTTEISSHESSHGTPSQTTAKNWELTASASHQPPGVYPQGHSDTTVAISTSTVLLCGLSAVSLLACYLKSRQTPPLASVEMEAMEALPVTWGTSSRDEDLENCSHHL
Protocol: as §1

T5 sequence (Q8NA23 other isoform, or with tags, fused parts or gaps): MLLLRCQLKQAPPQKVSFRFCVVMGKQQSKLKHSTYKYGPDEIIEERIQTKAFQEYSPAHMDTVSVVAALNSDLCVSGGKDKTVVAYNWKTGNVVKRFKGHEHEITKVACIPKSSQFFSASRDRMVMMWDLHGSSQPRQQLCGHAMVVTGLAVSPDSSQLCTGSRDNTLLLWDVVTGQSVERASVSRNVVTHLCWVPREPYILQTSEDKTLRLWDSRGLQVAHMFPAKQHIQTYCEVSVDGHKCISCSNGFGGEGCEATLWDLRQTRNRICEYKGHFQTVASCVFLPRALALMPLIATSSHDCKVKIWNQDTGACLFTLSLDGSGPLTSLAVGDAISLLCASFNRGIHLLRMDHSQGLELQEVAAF

binding result [1]: binds | binding result [2]: binds | binding result [3]: binds | binding result [4]: binds | binding result [5]: binds | binding result [6]: binds
B1: hPILRα-AP (other)
chain: QPSGSTGSGPSYLYGVTQPKHLSASMGGSVEIPFSFYYPWELATAPDVRISWRRGHFHRQSFYSTRPPSIHKDYVNRLFLNWTEGQKSGFLRISNLQKQDQSVYFCRVELDTRSSGRQQWQSIEGTKLSITQAVTTTTQRPSSMTTTWRLSSTTTTTGLRVTQGKRRSDSWHISLET
notes: Used as culture supernatant; also called human PILRα-AP; Alkaline phosphatase (AP)-tagged PILRα construct; not shown: C-terminal alkaline phosphatase (AP) tag
